Assay results from article PMC6249844 (Molecular Biology of the Cell, 2018).

The binders below were run against RFP-tagged cargo selection complex (Vps35, Vps26, Vps29-RFP) (S. cerevisiae, UniProt P34110;P40335;P38759) (assay: recruitment to giant unilamellar vesicles).
Chain of RFP-tagged cargo selection complex (Vps35, Vps26, Vps29-RFP) (P34110 whole entry, chain 1 of 3): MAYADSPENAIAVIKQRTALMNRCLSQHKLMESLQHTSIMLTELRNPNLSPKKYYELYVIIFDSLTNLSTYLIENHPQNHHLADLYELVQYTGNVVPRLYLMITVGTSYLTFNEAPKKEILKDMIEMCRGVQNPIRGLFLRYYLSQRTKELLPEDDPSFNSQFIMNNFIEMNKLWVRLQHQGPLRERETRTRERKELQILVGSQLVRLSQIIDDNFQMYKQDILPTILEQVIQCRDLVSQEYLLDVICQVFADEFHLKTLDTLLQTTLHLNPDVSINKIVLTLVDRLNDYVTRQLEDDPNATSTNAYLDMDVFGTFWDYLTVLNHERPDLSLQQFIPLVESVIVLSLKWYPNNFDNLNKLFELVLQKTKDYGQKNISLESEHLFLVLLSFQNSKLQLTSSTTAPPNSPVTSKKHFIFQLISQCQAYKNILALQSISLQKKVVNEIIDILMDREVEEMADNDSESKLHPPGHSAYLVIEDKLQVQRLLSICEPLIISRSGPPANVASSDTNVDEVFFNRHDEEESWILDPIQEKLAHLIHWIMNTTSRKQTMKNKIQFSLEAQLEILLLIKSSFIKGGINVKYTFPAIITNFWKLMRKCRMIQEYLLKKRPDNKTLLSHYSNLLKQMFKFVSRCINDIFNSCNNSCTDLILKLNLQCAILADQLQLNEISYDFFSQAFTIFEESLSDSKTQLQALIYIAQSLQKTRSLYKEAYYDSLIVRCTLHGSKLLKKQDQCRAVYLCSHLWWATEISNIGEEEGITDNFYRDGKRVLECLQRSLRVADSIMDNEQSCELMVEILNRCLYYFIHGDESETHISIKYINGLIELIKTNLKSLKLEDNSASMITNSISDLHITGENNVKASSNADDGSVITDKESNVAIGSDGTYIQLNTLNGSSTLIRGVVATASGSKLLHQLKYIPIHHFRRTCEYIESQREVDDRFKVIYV
Chain of RFP-tagged cargo selection complex (Vps35, Vps26, Vps29-RFP) (P40335 whole entry, chain 2 of 3): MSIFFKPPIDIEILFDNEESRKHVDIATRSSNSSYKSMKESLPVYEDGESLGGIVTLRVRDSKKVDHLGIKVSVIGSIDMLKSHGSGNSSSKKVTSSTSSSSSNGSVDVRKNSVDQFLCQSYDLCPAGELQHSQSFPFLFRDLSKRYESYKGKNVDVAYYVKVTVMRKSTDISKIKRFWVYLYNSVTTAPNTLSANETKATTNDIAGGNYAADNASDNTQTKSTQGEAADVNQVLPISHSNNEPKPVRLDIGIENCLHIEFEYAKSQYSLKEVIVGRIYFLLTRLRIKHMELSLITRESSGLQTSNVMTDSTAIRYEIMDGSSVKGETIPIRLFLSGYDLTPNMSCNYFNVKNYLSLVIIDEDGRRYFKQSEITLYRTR
Chain of RFP-tagged cargo selection complex (Vps35, Vps26, Vps29-RFP) (P38759 whole entry, chain 3 of 3): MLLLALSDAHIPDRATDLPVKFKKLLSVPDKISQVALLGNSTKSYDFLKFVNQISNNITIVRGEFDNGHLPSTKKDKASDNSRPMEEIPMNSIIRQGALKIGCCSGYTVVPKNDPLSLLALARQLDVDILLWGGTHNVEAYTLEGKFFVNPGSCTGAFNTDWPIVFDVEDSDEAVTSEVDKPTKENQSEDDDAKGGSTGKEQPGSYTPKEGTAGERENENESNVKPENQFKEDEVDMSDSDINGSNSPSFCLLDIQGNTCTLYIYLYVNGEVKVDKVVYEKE

| binding result | Binder |
| --- | --- |
| binds | Snx3-mGFP (His-SUMO-Snx3-mGFP) (natural protein) MPREFKSFGSTEKSLLSKGHGEPSYSEIYAEPENFLEIEVHNPKTHIPNGMDSKGMFTDYEIICRTNLPSFHKRVSKVRRRYSDFEFFRKCLIKEISMLNHPKVMVPHLPGKILLSNRFSNEVIEERRQGLNTWMQSVAGHPLLQSGSKVLVRFIEAEKFVG |
| binds | GFP-tagged SNX-BAR complex (Vps5-Vps17 heterodimer with Vps17-GFP) (complex) chain 1: MDYEDNLEAPVWDELNHEGDKTQSLVSNSIESIGQISTNEERKDNELLETTASFADKIDLDSAPEWKDPGLSVAGNPQLEEHDNSKADDLINSLAPEQDPIADLKNSTTQFIATRESGGALFTGNANSPLVFDDTIYDANTSPNTSKSISGRRSGKPRILFDSARAQRNSKRNHSLKAKRTTASDDTIKTPFTDPLKKAEKENEFVEEPLDDRNERRENNEGKFTASVEKNILEQVDRPLYNLPQTGANISSPAEVEENSEKFGKTKIGSKVPPTEKAVAFKVEVKDPVKVGELTSIHVEYTVISESSLLELKYAQVSRRYRDFRWLYRQLQNNHWGKVIPPPPEKQSVGSFKENFIENRRFQMESMLKKICQDPVLQKDKDFLLFLTSDDFSSESKKRAFLTGSGAINDSNDLSEVRISEIQLLGAEDAAEVLKNGGIDAESHKGFMSISFSSLPKYNEADEFFIEKKQKIDELEDNLKKLSKSLEMVDTSRNTLAASTEEFSSMVETLASLNVSEPNSELLNNFADVHKSIKSSLERSSLQETLTMGVMLDDYIRSLASVKAIFNQRSKLGYFLVVIENDMNKKHSQLGKLGQNIHSEKFREMRKEFQTLERRYNLTKKQWQAVGDKIKDEFQGFSTDKIREFRNGMEISLEAAIESQKECIELWETFYQTNL chain 2: MTSAVPYDPYDDLDNNPFAEPQEEDSEPAATTTDGSSSMSEERVGTEQTAASVQDNGTANNIQNGLGEEGNATRSKTSNEHNENQQPSQPSERVILPERSDEKKKYTLLAKVTGLERFGSATGKKENPTIIFDCSTNLPTFRKQQYKNVKKSYEEFHQLFKYLNVAIQESFVPTLPSAYTTFGINSEEDRMKVTRNFQLWFNRLSQDPLIIRNEEVAFFIESDFNTYTPINKSKSLASGLKRKTLKQLAPPYDEITELAEFRPLVKSIYVVSQSLQEKLLRVSRNRKMMVQEENAFGQDFVNLDEHNKLYRRYGKILTAVGDIDSIIATMDMATLYDGLEWIVRDAYAVKEALTNRHFIMRNLVQAQQNSKAKQEQARRFRSRRDINPMKIDEALRQLKAAAKNEQVLTLKLQRITSNMIIERKQWISWYEEWIRSSIKEFTLRKIEYERKKLTLLERVRSDIRKADENGGLSRLGRHAVSNNNSDTSQTLKGDSWTGESNRKSQIPINKIAHTEFDDELFTEDDGYNSQDSDTTSLNARHAASLLGMSTK |
| binds | SNX-BAR complex without GFP tag (Vps5-Vps17 heterodimer) (complex) chain 1: MDYEDNLEAPVWDELNHEGDKTQSLVSNSIESIGQISTNEERKDNELLETTASFADKIDLDSAPEWKDPGLSVAGNPQLEEHDNSKADDLINSLAPEQDPIADLKNSTTQFIATRESGGALFTGNANSPLVFDDTIYDANTSPNTSKSISGRRSGKPRILFDSARAQRNSKRNHSLKAKRTTASDDTIKTPFTDPLKKAEKENEFVEEPLDDRNERRENNEGKFTASVEKNILEQVDRPLYNLPQTGANISSPAEVEENSEKFGKTKIGSKVPPTEKAVAFKVEVKDPVKVGELTSIHVEYTVISESSLLELKYAQVSRRYRDFRWLYRQLQNNHWGKVIPPPPEKQSVGSFKENFIENRRFQMESMLKKICQDPVLQKDKDFLLFLTSDDFSSESKKRAFLTGSGAINDSNDLSEVRISEIQLLGAEDAAEVLKNGGIDAESHKGFMSISFSSLPKYNEADEFFIEKKQKIDELEDNLKKLSKSLEMVDTSRNTLAASTEEFSSMVETLASLNVSEPNSELLNNFADVHKSIKSSLERSSLQETLTMGVMLDDYIRSLASVKAIFNQRSKLGYFLVVIENDMNKKHSQLGKLGQNIHSEKFREMRKEFQTLERRYNLTKKQWQAVGDKIKDEFQGFSTDKIREFRNGMEISLEAAIESQKECIELWETFYQTNL chain 2: MTSAVPYDPYDDLDNNPFAEPQEEDSEPAATTTDGSSSMSEERVGTEQTAASVQDNGTANNIQNGLGEEGNATRSKTSNEHNENQQPSQPSERVILPERSDEKKKYTLLAKVTGLERFGSATGKKENPTIIFDCSTNLPTFRKQQYKNVKKSYEEFHQLFKYLNVAIQESFVPTLPSAYTTFGINSEEDRMKVTRNFQLWFNRLSQDPLIIRNEEVAFFIESDFNTYTPINKSKSLASGLKRKTLKQLAPPYDEITELAEFRPLVKSIYVVSQSLQEKLLRVSRNRKMMVQEENAFGQDFVNLDEHNKLYRRYGKILTAVGDIDSIIATMDMATLYDGLEWIVRDAYAVKEALTNRHFIMRNLVQAQQNSKAKQEQARRFRSRRDINPMKIDEALRQLKAAAKNEQVLTLKLQRITSNMIIERKQWISWYEEWIRSSIKEFTLRKIEYERKKLTLLERVRSDIRKADENGGLSRLGRHAVSNNNSDTSQTLKGDSWTGESNRKSQIPINKIAHTEFDDELFTEDDGYNSQDSDTTSLNARHAASLLGMSTK |
